Measurements reported in patent publication US20240109962A1 (SPARX BIOSCIENCE, published 2024).
Like-named read-outs stand apart in the source and are kept apart here.

Legend:
[1] = molecular target: LILRB2 antigen of the ELISA of Table 5 (format not specified) (UniProt Q8N423 22-460, limits assumed); experiment: ELISA, antibody titration
[2] = molecular target: T1, human LILRB1 expressed on 293T cells (human, UniProt Q8NHL6 24-650); experiment: flow cytometry on 293T transfectants, MFI
T1 construct: whole, on cells
Protocol: (§1) The cells were then immobilized with glutaraldehyde in the presence of 5% defatted milk at room temperature for 2 hours. An anti-LILRB2 antibody (5 μg/ml) was added to each well and incubated at room temperature for 1 hours. An Alex Flour®-labelled goat anti-mouse secondary antibody (1:2,000 dilution) was then added into each well and incubated at room temperature for 30′. The cells were washed twice with PBS after the staining. Fluorescence intensities (MFI) were measured.

[3] = molecular target: T2, human LILRB3 expressed on 293T cells (human, UniProt O75022 24-631); experiment: flow cytometry on 293T transfectants, MFI
T2 construct: whole, on cells
Protocol: as §1

[4] = molecular target: T3, LILRB1-His; experiment: ELISA on recombinant His-tagged protein, OD450
T3 construct: also called His-tagged LILRB1; recombinant LILRB1 protein

[5] = molecular target: T4, LILRB3-His; experiment: ELISA on recombinant His-tagged protein, OD450
T4 construct: also called His-tagged LILRB3; recombinant LILRB3 protein

[6] = molecular target: T5, His-tagged human LILRB2 polypeptide (human, UniProt Q8N423 22-460); experiment: SPR, antibody on CM5 chip, His-LILRB2 analyte, 1:1 model
T5 construct: SPR analyte; also called His-tagged human LILBR2 polypeptide; not shown: His tag
Protocol: Surface plasmon resonance (SPR) was used to examine binding activities of exemplary anti-LILBR2 antibodies disclosed herein. Briefly, the anti-LILBR2 antibody was diluted in a coating buffer to a concentration of 30 μg/ml, loaded onto CM5 chips at 10 μl/min to allow coating of the antibody on the surface of the CM5 chip. […] Binding affinity was measured based on the 1:1 binding model.

[7] = molecular target: T1, human LILRB1 expressed on 293T cells; experiment: cell ELISA on fixed 293T transfectants, OD490
Protocol: (§2) The cells were then immobilized with glutaraldehyde in the presence of 5% defatted milk at room temperature for 2 hours. An anti-LILRB2 antibody (2 μg/ml) was added to each well and incubated at room temperature for 2 hours. An HRP-labelled goat anti-mouse secondary antibody was then added into each well and incubated at room temperature for one hour. An HRP substrate, o-phenylenediamine dihydrochloride (OPD) was then added to each well. The plate was incubated at room temperature for 15 min to allow color development and OD₄₉₀ values were determined.

[8] = molecular target: T2, human LILRB3 expressed on 293T cells; experiment: cell ELISA on fixed 293T transfectants, OD490
Protocol: as §2

[9] = molecular target: T6, human LILRB2 expressed on cells (293T-LILRB2, CHO-K1-LILRB2) (human, UniProt Q8N423 22-597); experiment: flow cytometry on 293T-LILRB2 cells, serial dilution, APC anti-human IgG; fit table under the graph
T6 construct: whole, on cells; the cell line is named under assay; also called HEK293T-LILRB2
Excerpt: (§3) The cells were washed and then subject to flow cytometry to measure levels of fluorescent signals.

[10] = molecular target: T6, human LILRB2 expressed on cells …; experiment: flow cytometry, blockade of His-tagged HLA-G tetramer binding to 293T-LILRB2 cells; fit table under the graph
Protocol: (§4) Serial diluted humanized LILRB2 antibodies were then added to the mixture and incubated at room temperature for another 45 minutes. The binding of HLA-G/LILRB2 was detected afterwards using a secondary PE-labeled anti-His tag antibody via flow cytometry.

[11] = molecular target: T6, human LILRB2 expressed on cells …; experiment: flow cytometry, blockade of His-tagged HLA-G tetramer binding to 293T-LILRB2 cells; fit table under the graph, row headed EC50
Protocol: as §4

[12] = molecular target: T6, human LILRB2 expressed on cells …; experiment: flow cytometry on 293T-LILRB2 cells, serial dilution, APC anti-human IgG; fit table under the graph; remark: listed apart in the source
Excerpt: as §3

T1 sequence (Q8NHL6 24-650): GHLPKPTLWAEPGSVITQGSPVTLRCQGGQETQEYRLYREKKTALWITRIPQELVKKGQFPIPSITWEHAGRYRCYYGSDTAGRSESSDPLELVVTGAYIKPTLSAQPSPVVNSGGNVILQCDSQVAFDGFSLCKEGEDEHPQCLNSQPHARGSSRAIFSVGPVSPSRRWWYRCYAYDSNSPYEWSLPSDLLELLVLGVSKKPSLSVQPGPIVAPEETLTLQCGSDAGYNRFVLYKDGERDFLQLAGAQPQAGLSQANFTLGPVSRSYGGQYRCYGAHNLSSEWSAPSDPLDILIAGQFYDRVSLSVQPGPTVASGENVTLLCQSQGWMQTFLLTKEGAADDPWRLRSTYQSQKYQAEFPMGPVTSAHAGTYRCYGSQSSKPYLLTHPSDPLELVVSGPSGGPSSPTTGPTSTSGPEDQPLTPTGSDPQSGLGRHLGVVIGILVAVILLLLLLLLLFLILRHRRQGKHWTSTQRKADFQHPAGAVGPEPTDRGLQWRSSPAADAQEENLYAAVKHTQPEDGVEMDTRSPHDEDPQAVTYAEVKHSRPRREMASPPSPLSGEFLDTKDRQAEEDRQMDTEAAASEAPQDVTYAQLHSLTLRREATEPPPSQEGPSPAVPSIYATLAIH
T6 sequence (Q8N423 22-597): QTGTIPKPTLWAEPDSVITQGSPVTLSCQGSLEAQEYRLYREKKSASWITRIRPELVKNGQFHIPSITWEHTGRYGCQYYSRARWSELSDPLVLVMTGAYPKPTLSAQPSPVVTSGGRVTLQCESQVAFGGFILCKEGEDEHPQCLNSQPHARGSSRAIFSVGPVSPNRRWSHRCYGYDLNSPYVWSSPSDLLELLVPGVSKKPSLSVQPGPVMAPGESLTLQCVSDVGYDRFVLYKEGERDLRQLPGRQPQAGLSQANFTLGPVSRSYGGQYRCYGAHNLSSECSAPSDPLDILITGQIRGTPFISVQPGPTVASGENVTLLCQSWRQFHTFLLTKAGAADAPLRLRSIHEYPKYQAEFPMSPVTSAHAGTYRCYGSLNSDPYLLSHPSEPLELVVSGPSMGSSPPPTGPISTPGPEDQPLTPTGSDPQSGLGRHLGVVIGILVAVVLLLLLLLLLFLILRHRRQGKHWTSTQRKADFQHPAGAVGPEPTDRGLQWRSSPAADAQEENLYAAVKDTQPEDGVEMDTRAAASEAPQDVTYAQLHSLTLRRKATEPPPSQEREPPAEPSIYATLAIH
LILRB2 antigen of the ELISA of Table 5 (format not specified), sequence (Q8N423 22-460 limits assumed): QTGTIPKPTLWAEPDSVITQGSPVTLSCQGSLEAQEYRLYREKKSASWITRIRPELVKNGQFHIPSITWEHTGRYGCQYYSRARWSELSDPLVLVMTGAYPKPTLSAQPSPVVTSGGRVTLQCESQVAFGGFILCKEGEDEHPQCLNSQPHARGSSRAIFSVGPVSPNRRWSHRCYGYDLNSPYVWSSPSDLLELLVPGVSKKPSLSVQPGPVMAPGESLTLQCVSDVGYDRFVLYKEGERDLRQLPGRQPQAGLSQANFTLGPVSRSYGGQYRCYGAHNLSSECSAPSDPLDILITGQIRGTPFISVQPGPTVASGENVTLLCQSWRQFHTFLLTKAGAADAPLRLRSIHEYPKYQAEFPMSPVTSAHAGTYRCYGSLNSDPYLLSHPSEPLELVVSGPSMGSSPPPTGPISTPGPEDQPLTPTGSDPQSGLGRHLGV
T5 sequence (Q8N423 22-460 limits assumed): as above
T3 sequence (chain, as listed by the source limits assumed): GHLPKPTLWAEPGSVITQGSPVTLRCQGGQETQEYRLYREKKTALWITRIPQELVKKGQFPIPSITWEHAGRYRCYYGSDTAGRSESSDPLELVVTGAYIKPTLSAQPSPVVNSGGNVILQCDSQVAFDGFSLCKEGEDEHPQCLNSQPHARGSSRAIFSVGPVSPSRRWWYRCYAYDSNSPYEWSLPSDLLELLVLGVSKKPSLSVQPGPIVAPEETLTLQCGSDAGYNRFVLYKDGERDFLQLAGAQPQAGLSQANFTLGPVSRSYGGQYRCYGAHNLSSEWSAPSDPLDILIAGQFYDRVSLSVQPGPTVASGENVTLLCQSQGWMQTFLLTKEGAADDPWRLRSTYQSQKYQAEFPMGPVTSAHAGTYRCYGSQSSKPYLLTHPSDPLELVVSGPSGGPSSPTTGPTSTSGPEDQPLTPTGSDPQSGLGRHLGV

| Binder | Kd [1] [nM] | binding result [4] | binding result [5] | Kd [6] [nM] | koff [6] [s⁻¹] | kon [6] [M⁻¹ s⁻¹] | binding result [7] | binding result [8] | Span [10] [RFU] | EC50 [11] [nM] | other results |
| --- | --- | --- | --- | --- | --- | --- | --- | --- | --- | --- | --- |
| Antibody 8A4 (antibody, V domains shown, Mouse hybridoma mAb purified from ascites) VH: QVQLKESGPGLVAPSQSLSITCTVSGFSLTDYGVNWVRQPPGKGLEWLGMIWGDGNTDYNSALKSRLSISKVNSKSQVFLKMNSLQTDDTARYYCARSSYRYDENIYYYAMDYWGQGTSVTVSS VL: DIVMTQSPSSLTVTAGEEVTLSCKSSQSLLNSGIQKNYLTWYQQKPGQPPKLLIYWASTRESGVPDRFTGSVSGTDFTLTISSVQAEDLAVYYCQNDYSLPFTFGSGTKLEIK | 0.493 | no binding | no binding | 0.185 | 0.000174 | 940000 |  |  |  |  | binding result [2]: no binding (tested: 5 µg/ml); binding result [3]: no binding (tested: 5 µg/ml) |
| Antibody 15A6 (antibody, V domains shown, Mouse hybridoma mAb purified from ascites) VH: EVKLVESGGDLVKPGGSLKLSCAASGFTFSTYGMSWVRQTPEKRLEWVATISGSNSYTYYPDSVKGRFTISRDNAKNNLYLQMSSLRSEDTALYYCTRHENGYYFYAMDYWGQGTSVTVSS VL: DVQITQSPSYLTASPGETITINCRSSKSITKYLAWYQEKPGKTNKLLIYSGSTLQSGIPSRFSGSGSGTDFTLTISSLEPEDFAMYYCQQHSEYPWTFGGGTRLEIK | 0.725 |  |  | 5.45 | 0.00137 | 251000 | no binding (tested: 2 µg/ml) |  |  |  |  |
| Antibody 6H8 (antibody, V domains shown, Mouse hybridoma mAb purified from ascites) VH: QIQLVQSGPELKKPGETVRISCKASGYTFTNYGMNWVKQAPGKGLKWMGWINTYTGEPTYADDFRGRFALSLEPSASTASLQINNLKNEDTATYFCARYYDYDYFDYWGQGTTLTVSS VL: DIVMTQSPSSLRVSAGEKVTMSCKSSQSLLNGGNQKNYLAWYQQKPGQPPKVLIYGASTRVSGVPDRFTGRGSGIDFTLTISSVEAEDLAVYYCQNDLSYPLTFGAGTKLELK | 5.7 | no binding | no binding |  |  |  | no binding (tested: 2 µg/ml) | no binding (tested: 2 µg/ml) |  |  |  |
| Antibody 3C12 (antibody, V domains shown, Mouse hybridoma mAb purified from ascites) VH: QVQLKESGPGLVAPSQSLSITCTVSGFSLTSYGVHWVRQSPGKGLEWLGVIWAGGTTNYNSALMSRLSISKDNSKSQVFLKMNSLQADDTAMYYCARGGYGHSMDYWGQGTSVTVSS VL: DIVMTQSHKFMSTSVGDRVSITCKASQDVSNAVAWYQQKPGQSPKLLIYSASYRYTGVPDRFTGSGSGTDFIFTISSVQAEDLAVYYCQQHYSTPFTFGSGTKLEIK | 5.01 | no binding | no binding |  |  |  | no binding (tested: 2 µg/ml) | no binding (tested: 2 µg/ml) |  |  |  |
| Antibody 7C12 (antibody, V domains shown, Mouse hybridoma mAb purified from ascites) VH: EVQLQQSGPDLVKPGASVKISCKASGYIFTDFNMHWVKQSHGKSLEWIGYIYPFNGGTGYNQKFENMATLTVDISSSTAYMEVRSLTSEDSAVYYCARRGGRGHFDYWGQGTTLTVSS VL: DIQMTQSPASLSASVGETVTVTCRASGNIHNYLAWYQQKQGKSPQLLVYNAKTLADGVPSRFSGSGSGIQFSLKINSLQPEDFGSYYCQHFWNTPFTFGSGTKLEIK | 0.631 |  |  | 0.792 | 0.000209 | 263000 | no binding (tested: 2 µg/ml) | no binding (tested: 2 µg/ml) |  |  |  |

Continued, in another order:

| Kd [1] [nM] | binding result [4] | binding result [5] | Kd [6] [nM] | koff [6] [s⁻¹] | kon [6] [M⁻¹ s⁻¹] | binding result [7] | binding result [8] | Span [10] [RFU] | EC50 [11] [nM] | Binder | other results |
| --- | --- | --- | --- | --- | --- | --- | --- | --- | --- | --- | --- |
|  |  |  |  |  |  | no binding (tested: 2 µg/ml) | no binding (tested: 2 µg/ml) |  |  | Antibody 2C1 (antibody, V domains shown, Mouse hybridoma mAb purified from ascites) VH: EVKLVEPGGGLVQPGGSLRLSCATSGFTFSDFYMGWVRQPPGKRLEWIAASGNKAHDYATEYSASVKGRFFVSRDTFQSILYLQMNALRAEDTAIYYCARSYYYGSSAWFTYWGQGTLVTVSV VL: DIVMTQSHKFMSTSIRDRVTIACKASQDVGTAVAWYQQKPGQSPKLLIFWASTRHAGVPDRFTGSGSGTDFTLTISNVQSEDLTDYFCQQYSSYPLTFGAGTKLELK |  |
|  |  |  |  |  |  |  |  | 8850 | 0.219 | Antibody h#2B1 (antibody, V domains shown, Humanized variant of 11B12) VH: EVQLVESGGGLVQPGGSLRLSCAVSGYSITSGYYWNWIRQAPGKGLEWVAYISYDGNNNYNPSLKNRFTISRDASKNTVYLQMNSLRAEDTAVYYCAREESTMITTAWFAYWGQGTLVTVSS VL: DIQMTQSPSSLSASVGDRVTITCRASENIYSNLAWYQQKPGKAPKLLIYGATNLASGVPSRFSGSGSGTDYTLTISSLQPEDFATYYCQHFWDTPYTFGQGTKVEIK | Bmax [9]: 606000 RFU; Kd [9]: 0.256 nM |
|  |  |  |  |  |  |  |  | 7640 | 0.131 | Antibody h#2D2 (antibody, V domains shown, Humanized variant of 11B12) VH: EVQLVESGGGLVQPGGSLRLSCAVSGYSITSGYYWNWIRQAPGKGLEWVAYISYDGNNNYNPSLKNRFTISRDASKNTFYLQMNSLRAEDTAVYYCAREESTMITTAWFAYWGQGTLVTVSS VL: DIQMTQSPSSLSASVGDRVTITCRASENIYSNLAWYQQKPGKAPKLLIYGATNLASGVPSRFSGSGSGTDYTLTISSLQPEDFATYYCQHFWDTPYTFGQGTKVEIK | Bmax [12]: 608000 RFU; Kd [12]: 0.362 nM |
|  |  |  |  |  |  |  |  | 8780 | 0.389 | Antibody h#2E2 (antibody, V domains shown, Humanized variant of 11B12) VH: EVQLVESGGGLVQPGGSLRLSCAVSGYSITSGYYWNWIRQAPGKGLEWVAYISYDGNNNYNPSLKNRFTISRDTSKNTVYLQMNSLRAEDTAVYYCAREESTMITTAWFAYWGQGTLVTVSS VL: DIQMTQSPSSLSASVGDRVTITCRASENIYSNLAWYQQKPGKAPKLLIYGATNLASGVPSRFSGSGSGTDYTLTISSLQPEDFATYYCQHFWDTPYTFGQGTKVEIK | Bmax [9]: 615000 RFU; Kd [9]: 0.317 nM |
